Laboratory results as given in patent US9201073B2, “Methods and compositions for enhancing proteasome activity” (President and Fellows of Harvard College, priority 2007, dated 2015).
Substitutions are numbered along the chain they refer to. Numbers in names are those of the source.

Experiments:
[1] = target: T1, Ubp6 (Saccharomyces cerevisiae, UniProt P43593); assay: Ub-AMC hydrolysis by Ubp6 treated with ubiquitin-vinyl sulfone; format: biochemical, yeast; details: Ub-VS 2.5 μM; Ub-AMC 0.5 μM
T1 construct: GST (N, cleaved yes); made in house; host or cells: bacteria (pGEX-4T-1, plasmid pDL74)
T1 sequence (P43593 1-499): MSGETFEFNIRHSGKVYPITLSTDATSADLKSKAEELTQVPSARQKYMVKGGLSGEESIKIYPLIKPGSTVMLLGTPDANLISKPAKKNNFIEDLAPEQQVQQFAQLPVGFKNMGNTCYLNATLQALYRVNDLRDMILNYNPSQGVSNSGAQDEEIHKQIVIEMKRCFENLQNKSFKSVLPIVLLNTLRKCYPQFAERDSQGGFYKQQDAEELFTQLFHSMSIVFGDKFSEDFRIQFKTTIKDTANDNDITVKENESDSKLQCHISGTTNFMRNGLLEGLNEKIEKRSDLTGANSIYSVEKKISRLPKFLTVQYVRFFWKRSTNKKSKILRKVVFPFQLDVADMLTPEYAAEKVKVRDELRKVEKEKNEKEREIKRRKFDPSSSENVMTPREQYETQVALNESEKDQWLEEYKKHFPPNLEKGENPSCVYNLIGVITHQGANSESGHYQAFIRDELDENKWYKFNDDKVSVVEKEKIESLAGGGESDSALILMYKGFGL
Experimental: FIG. 9A depicts the result of an in vitro ub-cyclin B assay carried out with ubp6Δ proteasomes (135 nM) supplemented with wild-type Ubp6 (540 nM) and ubiquitinvinyl sulfone (2.5 μM), as indicated. The lower panel is anti-Ubp6 immunoblot showing modification of Ubp6 by Ub-VS. Ubp6 was present in four-fold molar excess over proteasome, and thus only a fraction of Ubp6 protein was modified.
FIG. 9B depicts the results of Ub-AMC (0.5 μM) hydroylsis assay.
As an alternate approach to assay non-catalytic inhibition, ubiquitin-vinyl sulfone (Ub-VS), an irreversible active site inhibitor of Ubp6, was used. Residual Ub-AMC hyrdolyzing activity in the presence of Ubp6-Ub-VS is at the level of background in this assay. […] Indeed the large excess of substrate over Ubp6 (see Methods described in Example 1) is inconsistent with a model in which Ubp6 inhibits degradation by sequestering substrate. […] Although these functions are distinct, each requires both the Ubl domain and the C-terminal domain. The Ubl domain serves in both cases to target Ubp6 to the proteasome, and that both functions are obligatorily executed on the proteasome.

[2] = target: T2, proteasomes (Saccharomyces cerevisiae, UniProt P30656+P43588); assay: Proteasome-dependent hydrolysis of suc-LLVY-AMC; format: biochemical, yeast; details: o-PA treatment
T2 construct: A previously described procedure for purification of the proteasome; TEV-ProA (TEV site + protein A), chromosomally integrated (C); made in house
From the text: FIG. 1E is a graph depicting proteasome-dependent hydrolysis of suc-LLVY-AMC (SEQ ID NO: 1), a ubiquitin-independent fluorogenic proteasome substrate. Error bars reflect standard deviations.
The next studies were designed to determine whether the observed difference in cyclin B degradation was due specifically to Ubp6. Proteasomes were examined by Coomassie blue staining (FIG. 1D) and native gel electrophoresis, and no evidence for either an unexpected compositional difference or a gross structural abnormality in mutant proteasomes was found (see also Guterman and Glickman. (2004). Complementary roles for Rpn11 and Ubp6 in deubiquitination and proteolysis by the proteasome. J. Biol. Chem. 279, 1729-1738).

[3] = target: T3, ubp6Δ proteasomes (Saccharomyces cerevisiae, UniProt P30656+P43588); assay: In vitro ub-cyclin B deubiquitination/degradation assay with purified yeast proteasomes; format: biochemical; details: for inhibition of cyclin B degradation: ubp6Δ proteasomes 135 nM, recombinant Ubp6 or Usp14 species 540 nM, Ubl and Ubl-MBP 1.35 μM, preincubated 5 min, immunoblot
T3 construct: proteasomes purified from ubp6Δ mutants; TEV-ProA (TEV site + protein A), chromosomally integrated (C); made in house
Experimental: Proteasomes (135 nM) were incubated with ub-cyclin Bin the presence of 1 mM ATP and buffer (50 mM Tris [pH 7.51, 1 mM EDTA, 5 mM MgCl2) for the indicated times. Reactions were terminated by the addition of 5×SDS Laemmli loading buffer (Leggett, et al. (2002). Multiple associated proteins regulate proteasome structure and function. Mol. Cell. 10, 495-507) and boiled for 5 min. Where indicated, recombinant, purified Ubp6 or Usp14 species (540 nM) were preincubated with proteasomes for 5 min prior to the reaction. […] Unless otherwise noted, immunoblots were visualized with anti-cyclin B1 polyclonal antibodies. Polyclonal antibodies recognizing Ubp6, Rpn5, Rpn12, and ubiquitin were used as indicated. Ub-cyclin B was added in molar excess over proteasome, generally on the order of 25-fold, except for FIGS. 4C, 6A and 6B, where the substrate:enzyme ratio was increased by a factor of five.
In the experiments of FIGS. 1, 4 (except FIG. 4C), and 6C, time points were sampled after the preparation of a single reaction mixture. The zero time points therefore reflect a lag which represents the amount of time required to sample the first time point after having prepared the reaction mixture. […] In the experiments of FIGS. 2, 4C, and 6 (except 6C), each time point was carried out as an independent reaction. The zero time points were prepared in the presence of 5×LLB, and accordingly, no processing could occur before time zero.
Ubiquitination of cyclin B was carried out. Briefly, for each 30 μl reaction, Anaphase Promoting Complex (APC) was immunopurified from 600 μl of mitotic Xenopus egg extract with 12 μg of anti-Cdc27 antibodies (AF3.1, Santa Cruz Biotechnologies, Santa Cruz, Calif.) bound to 30 μl of Affiprep Protein A beads (Bio-Rad, Hercules, Calif.). Beads were washed three times with XB high salt (10 mM potassium HEPES pH 7.7, 500 mM KCl, 0.1 mM CaCl2, 1 mM MgCl2), two times with XB (same but with 100 mM KCl), and then three times into the reaction buffer (20 mM Tris pH 7.5, 100 mM KCl, 2.5 mM MgCl2, 2 mM ATP). Ubiquitination reactions contained immunoprecipitated APC on 30 μl of beads, and 30 μl of a mix containing recombinant MBP-human E1 at 200 μg/ml, histidine-tagged Ubc4 at 66 μg/ml, ubiquitin at 1.25 mg/ml, and 50 μg/ml of histidine-tagged cyclin B1/cdc2 complex expressed in baculovirus. Reactions were incubated for 90 minutes at 22° C. with agitation on a shaker at 1,000 RPM. Reaction supernatants were combined with the eluate from the wash of beads with 20 μl of reaction buffer. Reactions were either used fresh after preparation or frozen at −80° C. until use with purified proteasomes.

[4] = target: T4, RP purified from a ubp6Δ mutant (Saccharomyces cerevisiae, UniProt P43588); assay: Processing of ub-cyclin B by regulatory particle (RP); format: biochemical, yeast; details: RP 135 nM, four-fold molar excess of Ubp6 species
T4 construct: TEV-ProA (TEV site + protein A), chromosomally integrated (C); made in house
Experimental: FIGS. 6A and 6B depict the processing of ub-cyclin B by RP (ubp6Δ) in the presence or absence of purified Ubp6. Reactions were visualized by immunoblotting with anti-cyclin B antibody or anti-ubiquitin antibody, as indicated.
FIG. 12 is an illustration depicting the RP-mediated disassembly of Ub-cyclin B conjugates by Ubp6. Proteasome regulatory particle (135 nM) purified from a ubp6Δ strain was combined with a four-fold molar excess of Ubp6, Ubp6-ublΔ, or Ubp6-C118A, and Ub-Cyclin B, and incubated for the indicated times. Reactions were visualized by immunoblot with anti-ubiquitin antibody. *represents a non-ubiquitin immunoreactive band.
A previously described procedure for purification of the proteasome (Leggett, et al. (2002). Multiple associated proteins regulate proteasome structure and function. Mol. Cell. 10, 495-507) was modified by adding 1 mM ATP and 5 mM MgCl2 to all purification buffers, and by washing resins with 100 bed vol. of buffer containing 50 mM NaCl, as opposed to 50 bed vol. of buffer containing 100 mM NaCl. RP was purified in the presence of ATP and MgCl2 as described (Leggett et al., 2002).
Proteasomes (135 nM) were incubated with ub-cyclin Bin the presence of 1 mM ATP and buffer (50 mM Tris [pH 7.51, 1 mM EDTA, 5 mM MgCl2) for the indicated times. […]

[5] = test system: Ub-AMC; assay: Ub-AMC hydrolyzing activity of purified recombinant Ubp6 species; format: biochemical; details: purified recombinant enzyme 0.5 μM
Experimental: FIG. 8 is a graph depicting that the Ubp6-C118A mutant lacks deubiquitinating activity. Ub-AMC hydrolyzing activity of purified recombinant wild-type Ubp6 or Ubp6-C118A (0.5 μM). Ub-AMC, no enzyme control.

[6] = target: T5, proteasome (Saccharomyces cerevisiae, UniProt P30656+P43588); assay: Ub-Cdc34 binding assay (electrophoretic mobility shift of proteasome); set-up: species or system yeast; details: proteasome 4 pmoles, ub-Cdc34 8 pmoles, Ubp6-C118A 8 pmoles
T5 construct: A previously described procedure for purification of the proteasome; TEV-ProA (TEV site + protein A), chromosomally integrated (C); made in house
Experimental: Binding of ubiquitinated-Cdc34 (8 pmoles) to proteasome (4 pmoles) was carried by native gel electrophoresis followed by overlay of the fluorogenic activity-based probe, suc-LLVY-AMC (SEQ ID NO: 1), as previously described (Elsasser, et al. (2004). Rad23 and Rpn10 serve as alternative ubiquitin receptors for the proteasome. J. Biol. Chem. 279, 26817-26822). Ubp6 or Ubp6-C118A (8 pmoles) were preincubated with proteasomes prior to substrate addition.

[7] = target: T3, ubp6Δ proteasomes; assay: Quantitation of proteasome inhibition by quantitative mass spectrometry of cyclin B; format: biochemical, yeast; details: 20-minute incubation
Experimental: A standard substrate degradation assay was carried out, and analyzed in parallel by SDS-PAGE followed by Coomassie blue staining and immunoblot with anti-cyclin B antibody. Immunoblots were used to identify and excise the cyclin B-containing regions of the Coomassie-stained gel, and the lanes were analyzed by mass spectrometry.
To quantify the extent of proteasome inhibition by Ubp6, a method of quantitative mass spectrometry was utilized. After a 20-minute incubation, approximately half of the total cyclin B was degraded by ubp6Δ proteasomes (FIG. 4C).

ubiquitin-vinyl sulfone [Ub-VS]
catalytic activity of wild-type Ubp6 as measured by Ub-AMC hydrolysis [1]: completely eliminated

c1cnc2c(c1)ccc1cccnc12 [o-PA, o-phenanthroline, reference compound]
LLVY-hydrolysis by proteasomes [2]: no effect
deubiquitination and degradation of cyclin B ([3]; ubp6Δ proteasomes, o-PA 10 mM added 10 min prior to cyclin B): strongly inhibited

B1: Ubl: N-terminal ubiquitin-like domain of Ubp6 by itself (protein)
chain: MSGETFEFNIRHSGKVYPITLSTDATSADLKSKAEELTQVPSARQKYMVKGGLSGEESIKIYPLIKPGSTVMLLGTPDANLIS
inhibition of cyclin B degradation [3]: no effect on cyclin B degradation

B2: Ubp6-C118A: catalytically inactive point mutant of Ubp6 (protein)
chain: T1 sequence (P43593 1-499) with C118A
processing of ub-cyclin B conjugates by RP [4]: no effect on substrate processing
deubiquitinating activity against the model substrate Ub-AMC [5]: completely devoid of deubiquitinating activity
conjugate (ubiquitinated Cdc34) binding to the proteasome [6]: comparable conjugate binding
inhibition of degradation (cyclin B) [7]: approximately 70%
inhibition of cyclin B degradation [3]: competent for inhibition
